Our source for the Km, kcat and kcat/Km values is PMC4169312 (The FEBS journal, 2014).

Assay in all cases: RP-HPLC product quantification, Michaelis-Menten fit
The target of series [1] is sMAT (methionine adenosyltransferase from Sulfolobus solfataricus) (Saccharolobus solfataricus, UniProt Q980S9). Format: biochemical. To be noted: 65 °C, pH 8.0, 2.5 mM ATP, 5 mM MgCl2, 40 mM KCl.
Substrate in series [2]: CSCC[C@H](N)C(=O)O
The format is biochemical, Saccharolobus solfataricus. The settings on record: 65 °C, pH 8.0, 2.5 mM ATP, 5 mM MgCl2, 40 mM KCl.

Substrate in series [3]: Nc1ncnc2c1ncn2[C@@H]1O[C@H](COP(=O)(O)OP(=O)(O)OP(=O)(O)O)[C@@H](O)[C@H]1O
The format is biochemical, Saccharolobus solfataricus. The settings on record: 65 °C, pH 8.0, 2.5 mM L-methionine, 5 mM MgCl2, 40 mM KCl.

A word on the Km: it is the substrate concentration at which the rate is half of its maximum. Regarding `CCSCC[C@H](N)C(=O)O` [L-ethionine, (2S)-2-amino-4-(ethylsulfanyl)butanoic acid], the Michaelis-Menten constant (Km) in series [1] worked out at 7 ± 1.6 µM.

B1: sMAT (methionine adenosyltransferase from Sulfolobus solfataricus) (Saccharolobus solfataricus P2) (protein)
chain: MRNINVQLNPLSDIEKLQVELVERKGLGHPDYIADAVAEEASRKLSLYYLKKYGVILHHNLDKTLVVGGQATPRFKGGDIIQPIYIIVAGRATTEVKTESGIDQIPVGTIIIESVKEWIRNNFRYLDAERHVIVDYKIGKGSSDLVGIFEASKRVPLSNDTSFGVGFAPLTKLEKLVYETERHLNSKQFKAKLPEVGEDIKVMGLRRGNEVDLTIAMATISELIEDVNHYINVKEQVRNQILDLASKIAPGYNVRVYVNTGDKIDKNILYLTVTGTSAEHGDDGMTGRGNRGVGLITPMRPMSLEATAGKNPVNHVGKLYNVLANLIANKIAQEVKDVKFSQVQVLGQIGRPIDDPLIANVDVITYDGKLTDETKNEISGIVDEMLSSFNKLTELILEGKATLF
A word on the kcat: it is the maximal rate divided by the concentration of active sites. As usually defined, the kcat/Km is the second-order rate constant that governs catalysis at low substrate concentration. In the case of B1, in series [2], the Km is 2.8 ± 0.7 µM, the kcat is 0.0487 ± 0.00117 s⁻¹ and the kcat/Km was 17400 ± 1670 M⁻¹ s⁻¹. Further, in series [3], the Km amounted to 14.5 ± 2.5 µM, the kcat was 0.0468 ± 0.00133 s⁻¹ and the kcat/Km was 3230 ± 533 M⁻¹ s⁻¹.
